# According to US6942981:
# Ends that are not written are not given here. * marks the point of attachment. Biotin = O=C1N[C@H]2[C@H](CS[C@H]2CCCCC(=O)*)N1
# T1: GST-NeDLG PDZ domains 1-2 fusion protein (Mus musculus (Mouse), UniProt P70175 147-332)
# T1 construct: also called NeDLG1; not shown: glutathione S-transferase (GST) encoded by pGEX-3X
# T1 chain: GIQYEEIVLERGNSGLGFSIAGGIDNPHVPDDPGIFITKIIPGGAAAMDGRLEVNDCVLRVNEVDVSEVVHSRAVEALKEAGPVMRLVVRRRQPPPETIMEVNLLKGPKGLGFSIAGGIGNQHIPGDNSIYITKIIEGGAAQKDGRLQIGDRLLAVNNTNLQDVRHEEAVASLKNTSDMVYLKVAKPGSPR
# T2: GST-TAX33 PDZ domain fusion protein (Homo sapiens (Human), UniProt O14910 103-194)
# T2 construct: not shown: glutathione S-transferase (GST) encoded by pGEX-3X
# T2 sequence: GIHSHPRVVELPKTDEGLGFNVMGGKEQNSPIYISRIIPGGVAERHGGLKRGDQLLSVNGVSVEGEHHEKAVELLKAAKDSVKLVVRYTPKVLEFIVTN
# T3: GST-AF6 PDZ domain fusion protein (Homo sapiens (Human), UniProt P55196 1001-1093)
# T3 construct: also called af-6 protein; not shown: glutathione S-transferase (GST) encoded by pGEX-3X
# T3 sequence: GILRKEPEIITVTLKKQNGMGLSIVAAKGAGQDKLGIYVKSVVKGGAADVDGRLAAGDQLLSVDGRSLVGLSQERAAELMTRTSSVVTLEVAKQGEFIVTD
# T4: GST-CASK PDZ domain fusion protein (mouse, UniProt O14936 485-575 (human entry))
# T4 sequence: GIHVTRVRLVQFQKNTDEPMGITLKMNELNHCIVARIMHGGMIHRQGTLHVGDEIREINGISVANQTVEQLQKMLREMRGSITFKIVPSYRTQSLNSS
# T5: GST-PTN-4 PDZ domain fusion protein (Homo sapiens (Human), UniProt P29074 517-605)
# T5 construct: also called protein-tyrosine phosphatase meg1; not shown: glutathione S-transferase (GST) encoded by pGEX-3X
# T5 sequence: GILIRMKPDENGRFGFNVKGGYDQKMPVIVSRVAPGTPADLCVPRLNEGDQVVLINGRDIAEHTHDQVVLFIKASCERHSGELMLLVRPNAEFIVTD
# T6: GST-TAX2 PDZ domain fusion protein (human, UniProt O14908 129-216)
# T6 construct: not shown: glutathione S-transferase (GST) encoded by pGEX-3X
# T6 chain: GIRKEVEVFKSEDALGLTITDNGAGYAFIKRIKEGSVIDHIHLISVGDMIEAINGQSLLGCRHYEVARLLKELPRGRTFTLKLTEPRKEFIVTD
# T7: GST-MPP2 PDZ domain fusion protein
# T7 construct: also called maguk p55 subfamily member 2 (DLG2); MMP2; not shown: glutathione S-transferase (GST) encoded by pGEX-3X
# T7 chain: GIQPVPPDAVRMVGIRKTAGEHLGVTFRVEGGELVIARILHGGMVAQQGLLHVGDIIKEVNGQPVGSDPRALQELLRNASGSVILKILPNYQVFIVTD
# Legend:
# [1] = target: T8, GST-PSD95 PDZ domains 1-3 fusion protein (human, UniProt P31016 58-395 (rat entry)); assay: A assay
# T8 construct: not shown: glutathione S-transferase (GST) encoded by pGEX-3X
# T8 sequence (P31016 other isoform, or with tags, fused parts or gaps): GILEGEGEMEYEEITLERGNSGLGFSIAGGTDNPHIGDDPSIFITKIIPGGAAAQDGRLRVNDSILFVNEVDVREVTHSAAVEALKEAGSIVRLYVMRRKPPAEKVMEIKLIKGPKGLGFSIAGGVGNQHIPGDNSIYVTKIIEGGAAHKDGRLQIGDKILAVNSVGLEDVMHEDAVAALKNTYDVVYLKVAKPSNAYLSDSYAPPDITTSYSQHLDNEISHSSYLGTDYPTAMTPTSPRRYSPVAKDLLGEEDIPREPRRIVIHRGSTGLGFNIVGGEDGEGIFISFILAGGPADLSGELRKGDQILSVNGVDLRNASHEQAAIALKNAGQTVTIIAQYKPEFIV
# [2] = target: T1, GST-NeDLG PDZ domains 1-2 fusion protein; assay: G assay
# [3] = target: T2, GST-TAX33 PDZ domain fusion protein; assay: A/G assays
# [4] = target: T9, GST-TIAM1 PDZ domain fusion protein (Homo sapiens (Human), UniProt Q13009 845-932); assay: A/G assays
# T9 construct: also called T-lymphoma invasion and metastasis inducing protein 1; not shown: glutathione S-transferase (GST) encoded by pGEX-3X
# T9 sequence (Q13009 other isoform, or with tags, fused parts or gaps): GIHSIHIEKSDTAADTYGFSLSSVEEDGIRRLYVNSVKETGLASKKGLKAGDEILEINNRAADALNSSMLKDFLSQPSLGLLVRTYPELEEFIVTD
# [5] = target: T3, GST-AF6 PDZ domain fusion protein; assay: A/G assays
# [6] = target: T4, GST-CASK PDZ domain fusion protein; assay: A/G assays
# [7] = target: T5, GST-PTN-4 PDZ domain fusion protein; assay: A/G assays
# [8] = target: T6, GST-TAX2 PDZ domain fusion protein; assay: A/G assays
# [9] = target: T7, GST-MPP2 PDZ domain fusion protein; assay: A/G assays
# [10] = target: T1, GST-NeDLG PDZ domains 1-2 fusion protein; assay: A/G assays
Binder,binding result [1],binding result [2],binding result [3],binding result [4],binding result [5],binding result [6],binding result [7],binding result [8],binding result [9],binding result [10]
Biotin-QATSRNGHSARQHVVADTEL [CD34 C-terminal peptide AA7L],binds,binds,no binding,no binding,no binding,no binding,no binding,no binding,no binding,
Biotin-TIYENLAPVTTFGKTIA [CD148 peptide AA55L (ending KTIA)],,,no binding,no binding,no binding,no binding,no binding,no binding,no binding,no binding
